Entries after “also recorded” stand apart in the source; their conditions may differ.
Columns and labels:
[1] = system: β-catenin signaling; experiment: TOP-flash luciferase reporter assay in C2C12 cells; type: cell-based; conditions: different concentrations
Method: Different concentrations of Wnt7a were tested to exclude a dose dependent effect on β-catenin signaling, as measured by induction of TOP-flash activity in C2C12 cells.
The UBC-Fzd7-Flag (Fzd7-Flag), CMV-Fzd7-EYFP (Fzd7-YFP), CMV-Fzd3-EYFP (Fzd3-YFP), CMV-EYFP (YFP), CMV-EGFP-Rac1-wt (GFP-Rac1, 12980, Addgene), CMV-EGFP-Rac1-T17N (Rac1-DN, 12982, Addgene), CMV-EGFP-RhoA-T19N (RhoA-DN, 12967, Addgene) and CMV-EGFP-Cdc42-T17N (Cdc42-DN, 12976, Addgene) constructs have been described previously (Bentzinger et al., 2013a; Subauste et al., 2000; von Maltzahn et al., 2011). The Fzd7-tdtomato plasmid was generated by replacing the C-terminal YFP in Fzd7-YFP with tdTomato. For TOP-flash and FOP-flash the TCF reporter plasmid kit (17-285, Millipore) was used with the dual-luciferase reporter assay system (E1960, Promega). For normalization pGL4.74[hRluc/TK] (E6921, Promega) was cotransfected. For TOP-flash and FOP-flash assays the cells were transfected with GenJet lipofection reagent (SL100499, SignaGen). Otherwise, Lipofectamine 2000 (11668019, Life Technologies) was used for transfections.

[2] = system: tibialis anterior (TA) muscle; experiment: In vivo myoblast dispersal assay, tdTomato myoblasts into TA of C57BL/6 mice; design: species or system mouse; conditions: myoblasts treated 3 h, transplanted into TA of immunosuppressed C57BL/6 mice; 7 days; vs Veh.
Method: The duration of effects on cell migration were tested by loading intracellular stores with Wnt7a. tdTomato-expressing primary myoblasts, derived from tamoxifen treated Pax7-CreER; R26R-tdTomato mice (Yin et al., 2013a) were exposed to Wnt7a for 3 h; then the cells were washed and transplanted into the tibialis anterior (TA) muscle of immunosuppressed C57BL/6 mice (FIG. 5A). The myoblasts were co-injected with fluorescent microspheres to identify the injection site in subsequent analyses. 7 days later the mice were sacrificed and the behavior of the transplanted cells in the tissue was analyzed by scoring the number of tdTomato-expressing myofibers that were generated by fusion events with the donor cells. Transplantation of zsGreen-expressing satellite cells or myoblasts into mdx mice was performed as previously described (Bentzinger et al., 2013c). Before transplantation the cells were treated for 3 h with Wnt7a, Wnt5a, or Wnt3a (R&D Systems) at a concentration of 50 ng/mL for freshly isolated satellite cells or with 100 ng/mL for cultured cells. Myoblasts expressing tdTomato were transplanted into uninjured muscles of C57BL/6 mice that were implanted with an osmotic pump (Alzet) delivering FK506 (Sigma) at 2.5 mg/kg/day 3 days prior to the transplantations. […]

B1: Wnt7a: non-canonical Wnt polypeptide (R&D Systems) used to treat or load myogenic cells (protein, UniProt O00755 32-349, looked up)
Protein Wnt-7a: LGASIICNKIPGLAPRQRAICQSRPDAIIVIGEGSQMGLDECQFQFRNGRWNCSALGERTVFGKELKVGSREAAFTYAIIAAGVAHAITAACTQGNLSDCGCDKEKQGQYHRDEGWKWGGCSADIRYGIGFAKVFVDAREIKQNARTLMNLHNNEAGRKILEENMKLECKCHGVSGSCTTKTCWTTLPQFRELGYVLKDKYNEAVHVEPVRASRNKRPTFLKIKKPLSYRKPMDTDLVYIEKSPNYCEEDPVTGSVGTQGRACNKTAPQASGCDLMCCGRGYNTHQYARVWQCNCKFHWCCYVKCNTCSERTEMYTCK
B1 was tested, and the TOP-flash reporter activity [1] was “does not activate the TOP-flash reporter at any tested concentration; also recorded: did not increase TOP-flash reporter activity” and the “increase in number of tdTomato-expressing myofibers” value [2] was 119%.

— patent publication US20170087188A1, “WNT INDUCED MOTILITY AND ENHANCED ENGRAFTMENT OF CELLS” (OTTAWA HOSPITAL RESEARCH INSTITUTE, priority 2014, published 2017)
